{"source": "patent US20250320281A1", "binders": {"B1": {"name": "PGT-130 (antibody, V domains shown)", "VH": "QVQLQESGPGLVKPAETLSLTCSVSGESINTGHYYWGWVRQVPGKGLEWIGHIHYTTAVLHNPSLKSRLTIKIYTLRNQITLRLSNVTAADTAVYHCVRSGGDILYYYEWQKPHWFSPWGPGIHVTVSS", "VL": "QSALTQPPSASGSLGQSVTISCNGTSSDIGGWNFVSWYQQFPGRAPRLIIFEVNKRPSGVPGRFSGSKSGNSASLTVSGLQSDDEGQYFCSSLFGRWDVVFGGGTKLTVL"}, "B2": {"name": "PGT-126 (antibody, V domains shown)", "VH": "QPQLQESGPGLVEASETLSLTCTVSGDSTAACDYFWGWVRQPPGKGLEWIGGLSHCAGYYNTGWTYHNPSLKSRLTISLDTPKNQVFLKLNSVTAADTAIYYCARFDGEVLVYHDWPKPAWVDLWGRGTLVTVSS", "VL": "QSALTQPPSASGSPGQSISISCTGTSNRFVSWYQQHPGKAPKLVIYGVNKRPSGVPDRFSGSKSGNTASLTVSGLQTDDEAVYYCSSLVGNWDVIFGGGTKLTVL"}}, "key": {"[1]": {"target": "HIV-1 JR-CSF Env F468A (HIV-1 isolate JR-CSF) (UniProt P20871)", "experiment": "cell-based or functional assay"}, "[2]": {"target": "HIV-1 JR-CSF Env E466A (HIV-1 isolate JR-CSF) (UniProt P20871)", "experiment": "cell-based or functional assay"}}, "data": [{"binder": "B1", "values": [{"measurement": "Fold IC50 increase relative to wild-type", "setting": "[1]", "value": 0.4, "unit": "fold"}]}, {"binder": "B2", "values": [{"measurement": "Fold IC50 increase relative to wild-type", "setting": "[2]", "value": 1.4, "unit": "fold"}]}]}
